Experimental data published in paper PMC10398996.
Like-named read-outs stand apart in the source and are kept apart here. Values belong to the molecule of their own block, whether it stands above or below them.

Assays:
[1] = target: APLP1 F1 (APLP1 with a C-terminal FKBP tag and HA tag); experiment: native gel or EMSA; Blue Native PAGE (4–15% Tris–HCl gel, overnight, 4 °C) of membranes of transiently transfected N2a cells solubilised with n-dodecyl-β-D-maltoside; no dimerizer (untreated or ethanol vehicle); Western blot; dimer as percent of total signal
[2] = target: APLP2 F1 (APLP2-763 with a C-terminal FKBP tag and HA tag); experiment: as above
[3] = as above
[4] = native gel or EMSA; as a1, but the cells were treated with 100 nM of the rapamycin analogue AP20187 (dimerizer) overnight, added 4 h post-transfection
[5] = target: APP F1 (APP695 with a C-terminal FKBP tag and HA tag); experiment: native gel or EMSA; Blue Native PAGE (4–15% Tris–HCl gel, overnight, 4 °C) of membranes of transiently transfected N2a cells solubilised with n-dodecyl-β-D-maltoside; no dimerizer (untreated or ethanol vehicle); Western blot; dimer as percent of total signal
[6] = target: endogenous human APP (human (endogenous in middle frontal gyrus)); experiment: native gel or EMSA; Blue Native PAGE, semi-denaturing conditions, of human middle frontal gyrus (controls n = 5, AD n = 6); Western blot with Y188
[7] = target: endogenous mouse APLP1 (mouse (endogenous in C57BL/6 cortex and mouse cells)); experiment: native gel or EMSA; Blue Native PAGE of membranes of homogenised mouse cortices (E14 to 12 months; WT, non-transgenic and J20 mice; KO cortices as antibody controls), n-dodecyl-β-D-maltoside; Western blot with Y188, 57 or D2-II
[8] = target: endogenous mouse APP (mouse (endogenous in C57BL/6 cortex and mouse cells)); experiment: as above
[9] = target: endogenous mouse APP (mouse (endogenous in C57BL/6 cortex and mouse cells)); experiment: as above; remark: listed apart in the source
[10] = target: hAPP with the FAD mutations Swedish (K670N/M671L) and Indiana (V717F), transgenic in J20 mice (human) (UniProt P05067); experiment: as above
[11] = target: T1, endogenous mouse APLP2 (mouse (endogenous in C57BL/6 cortex and mouse cells)), Q06335; experiment: as above; conditions: remark: other sources report otherwise
T1 chain: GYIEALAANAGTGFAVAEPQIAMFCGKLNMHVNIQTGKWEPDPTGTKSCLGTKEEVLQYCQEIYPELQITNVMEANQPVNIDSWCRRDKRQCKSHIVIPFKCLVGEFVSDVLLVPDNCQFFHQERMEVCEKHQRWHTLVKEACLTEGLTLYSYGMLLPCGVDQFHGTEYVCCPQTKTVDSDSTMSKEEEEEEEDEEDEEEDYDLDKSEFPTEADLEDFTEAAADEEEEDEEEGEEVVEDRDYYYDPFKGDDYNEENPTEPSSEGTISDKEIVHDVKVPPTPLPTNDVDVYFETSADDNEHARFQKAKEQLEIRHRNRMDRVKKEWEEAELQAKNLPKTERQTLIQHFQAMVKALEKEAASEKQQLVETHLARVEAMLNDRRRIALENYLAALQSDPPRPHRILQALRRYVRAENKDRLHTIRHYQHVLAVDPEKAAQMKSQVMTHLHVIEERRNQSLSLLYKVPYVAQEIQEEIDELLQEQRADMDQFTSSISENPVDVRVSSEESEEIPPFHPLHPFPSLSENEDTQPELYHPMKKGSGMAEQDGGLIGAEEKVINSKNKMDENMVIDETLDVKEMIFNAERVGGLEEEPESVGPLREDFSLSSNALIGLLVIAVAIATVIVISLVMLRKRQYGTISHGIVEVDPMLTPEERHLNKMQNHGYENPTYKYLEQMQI

percent dimer [2]: 16.2%
Molecule: APLP2 F1 (APLP2-763 with a C-terminal FKBP tag and HA tag)
percent in the HMW complex [3]: < 20%, in the high molecular weight (HMW) complex
percent in the HMW complex with AP20187 [4]: > 60% of APLP2 in the HMW complex

percent dimer (non-demented controls) [6]: 21.8%
Molecule: endogenous human APP (natural protein)

percent dimer [11]: 26.1%
B1: endogenous mouse APLP2, Q06335 32-707 (natural protein)
chain: T1 chain

The next lines start with the molecule.

Molecule: APLP1 F1 (APLP1 with a C-terminal FKBP tag and HA tag)
percent dimer [1]: 31.8%

Molecule: APP F1 (APP695 with a C-terminal FKBP tag and HA tag)
percent dimer [5]: 22.2%

Molecule: endogenous mouse APLP1 (natural protein)
percent dimer [7]: 45.6%

Molecule: endogenous mouse APP (natural protein)
percent dimer [8]: 48.9%
percent dimer (1 to 12 months old mice) [8]: 49%
percent dimer (4 months) [8]: 61.3%
percent dimer (12 months) [8]: 54.8%
percent dimer [9]: 45%

Molecule: hAPP with the FAD mutations Swedish (K670N/M671L) and Indiana (V717F), transgenic in J20 mice (from UniProt P05067 18-770) (natural protein)
percent dimer (4 months) [10]: 58.1%
percent dimer (12 months) [10]: 58%
